From publication PMC5018249 come the findings set out here.

Assay [1] concerns the target BG505 SOSIP.D664 (HIV-1 strain BG505). Put plainly: SEC-MALS + other: negative-stain electron microscopy; in-house purified BG505 SOSIP trimers, thawed and analysed.
The target of assay [2] is BG505 SOSIP-GT3-PADRE (HIV-1 strain BG505). Put plainly: SEC-MALS; purified immunogen in solution; conditions not given. Background: SEC sorts molecules by how far they enter the pores of the column.

With BG505 SOSIP.D664 (domain or fragment), in assay [1], the stoichiometry N came out at 3. The substance BG505 SOSIP-GT3-PADRE showed a stoichiometry N in assay [2] of 3.

A word on the stoichiometry N: it is a count of units in the complex or per binding partner.
